Columns and labels:
Format in all cases: in vivo, mouse
[1] = S1P, ApoM, HDL-S1P and HDL-ApoM levels in plasma of APP/PS1 mice after HDL-ApoM-S1P loading; details: i.v. 25 μl twice a week for 4 weeks (8 times), vs untreated APP/PS1 mice
Text: (§1) Transgenic mice overexpressing hAPP695swe (APPswe) and presenilin-1M146V (PS1) mutations were used as mouse models of the Alzheimer's disease. These are mouse lines produced by GlaxoSmithKline (Harlow, UK) with the standard technology for C57BL background (Charles River, UK), which double heterozygote mutant mice (APP/PS1 tg mice) were produced by backcrossing APPswe mice with pure C57BL/6 backgrounds and crossing PS1 mice
(§2) After collecting blood from mice, the obtained blood was separated into erythrocytes and plasma by centrifugation. The separated erythrocytes are reacted with 10 uM sphingosine at 37° C. for 1 hour, and then reacted for 1 hour at 37° C. after mixing again with the separated plasma. After completion of the reaction, erythrocytes and plasma were separated by centrifugation, and only the plasma was collected again. The plasma thus obtained was loaded with S1P in HDL (HDL-ApoM-S1P loading), which was illustrated in FIG. 1.
The plasma solution thus obtained was intravenously injected 25 μl into mice twice a week for 4 weeks (total 8 times) according to the experimental outline shown in FIG. 2. As a control group, 3 μM S1P (Avanti) and […] ApoM (Mybiosource, SEQ ID NO: 1) were injected intravenously with 25 μl in mice twice a week for 4 weeks (eight times in total).
To collect blood from mouse models (APP/PS1 tg mice or APP/PS1/ApoM tg mice) and normal control mice (WT), the mice were anesthetized first, and 500 μl to 700 μl of blood were collected in heparin tubes (BD Falcon) by cardiac drawing. Each blood sample was then centrifuged at 1,200 rpm for 5 minutes to separate plasma from the supernatant. This plasma sample was stored at −80° C. before being used for analysis.
60 μl of plasma sample was placed in the ultrafast centrifuge tube, and then the same amount of PBS (Gibco) solution was added to form a layer on the plasma. A high speed centrifuge (HITACHI cp100wx Centrifuge P70AT rotor) was used to centrifuge at 70,000 rpm for 3 hours at 4° C. 60 μl of the lower layer of the sample separated into two layers was transferred into a new ultra-centrifuge tube. […]
Extraction and quantification of S1P was performed in the following manner. […] The dried lipid extract was resuspended in 25 μl of 0.2% Igepal CA-630 (Sigma-Aldrich), and the concentration level of each lipid was quantified by the UPLC system using the column ACQUITY BEH Shield RP18 1.7 μm 2.1×50 mm (186002853) and 0.1% of NH4OH.
Using a commercial ELISA kit (CUSABIO Human ApoM ELISA Kit and Mouse ApoM ELISA Kit), the amount of apolipoprotein M (ApoM) contained in the mouse plasma or HDL fractionated therefrom was quantified according to the manufacturer's protocol. […]

[2] = system: amyloid-β; test: Amyloid-β deposition in brain tissue (cerebral cortex), thioflavin S staining and immunofluorescence; details: APP/PS1 mice, vs 9-month-old untreated APP/PS1 mice
Text: as §1
(§3) After collecting blood from mice, the obtained blood was separated into erythrocytes and plasma by centrifugation. The separated erythrocytes are reacted with 10 uM sphingosine at 37° C. for 1 hour, and then reacted for 1 hour at 37° C. after mixing again with the separated plasma. […]
(§4) After fixing the cerebral (especially cortex) and hippocampus of mice with 4% paraformaldehyde, the immobilized tissues were incubated with 0.5% thioflavin S (Sigma-Aldrich) or anti-20G10 against Aβ42 (mouse, 1:1000), anti-G30 against Aβ40 (rabbit, 1:1000), anti-lba-1 (rabbit, 1:500, Wako), and anti-GFAP (rabbit, 1:500, DAKO), respectively. […] The sites were analyzed using a laser scanning confocal microscope or Olympus BX51 microscope equipped with Fluoview SV1000 imaging software (Olympus FV1000, Japan). Metamorph software (Molecular Devices) was used to quantify the percentage of area of stained area to area of total tissue. […]

[3] = system: tau; test: Tau deposition in brain tissue (AT8 immunofluorescence); details: APP/PS1 mice, cerebral cortex, vs 9-month-old untreated APP/PS1 mice
Text: as §1, §3, §4

[4] = system: microglia; test: Activity of microglia (Iba1 staining), neuroinflammatory response; details: APP/PS1 mice, brain tissue, vs untreated APP/PS1 mice
Text: as §1, §3, §4

[5] = system: astrocytes; test: Activity of astrocytes (GFAP staining), neuroinflammatory response; details: APP/PS1 mice, brain tissue, vs untreated APP/PS1 mice
Text: as §1, §3, §4

[6] = system: APP/PS1 mice; test: Morris water maze (MWM) test; details: 10 days training, probe trial day 11
Text: as §1, §2
The plasma solution thus obtained was intravenously injected 25 μl into mice twice a week for 4 weeks (total 8 times) according to the experimental outline shown in FIG. 2. […]
In order to identify potential effects on learning and memory, Morris water maze (MWM) and fear conditioning experiments were performed according to known methods. […] All experiments were recorded using a charge-coupled device (CCD) camera with video monitor and computer. […]

B1: ApoM: control, ApoM (Mybiosource, SEQ ID NO: 1) (protein)
chain: MFHQIWAALLYFYGIILNSIYQCPEHSQLTTLGVDGKEFPEVHLGQWYFIAGAAPTKEELATFDPVDNIVFNMAAGSAPMQLHLRATIRMKDGLCVPRKWIYHLTEGSTDLRTEGRPDMKTELFSSSCPGGIMLNETGQGYQRFLLYNRSPHPPEKCVEEFKSLTSCLDSKAFLLTPRNQEACELSNN
modifications: ApoM
[1]
  level of ApoM in plasma: did not show a difference
  level of HDL-ApoM in the HDL fraction: did not show a difference
  level of HDL-S1P in the HDL fraction: did not show a difference
  level of S1P in plasma: did not show a difference
[2]
  Aβ40 deposition in brain tissue: did not show a significant difference
  Aβ42 deposition in brain tissue: did not show a significant difference
[3]
  tau deposition (AT8) in brain tissue: did not show a significant difference
[4]
  inflammatory activity of microglia: no significant difference
[5]
  inflammatory activity of astrocytes: no significant difference
[6]
  learning and memory (spatial memory formation), MWM: severe impairment

From patent publication US11766444B2, “Pharmaceutical composition for preventing or treating degenerative brain disorders including HDL-APOM-S1P as active ingredient” (Kyungpook National University Industry-Academic Cooperation …, priority 2017, dated 2023)
